# Data as given in US20180339041A1 (Kyowa Kirin, published 2018).
# T1: human Mer forcedly expressed on HEK293F reporter cells (human, UniProt Q12866 21-999)
# T1 sequence (looked up): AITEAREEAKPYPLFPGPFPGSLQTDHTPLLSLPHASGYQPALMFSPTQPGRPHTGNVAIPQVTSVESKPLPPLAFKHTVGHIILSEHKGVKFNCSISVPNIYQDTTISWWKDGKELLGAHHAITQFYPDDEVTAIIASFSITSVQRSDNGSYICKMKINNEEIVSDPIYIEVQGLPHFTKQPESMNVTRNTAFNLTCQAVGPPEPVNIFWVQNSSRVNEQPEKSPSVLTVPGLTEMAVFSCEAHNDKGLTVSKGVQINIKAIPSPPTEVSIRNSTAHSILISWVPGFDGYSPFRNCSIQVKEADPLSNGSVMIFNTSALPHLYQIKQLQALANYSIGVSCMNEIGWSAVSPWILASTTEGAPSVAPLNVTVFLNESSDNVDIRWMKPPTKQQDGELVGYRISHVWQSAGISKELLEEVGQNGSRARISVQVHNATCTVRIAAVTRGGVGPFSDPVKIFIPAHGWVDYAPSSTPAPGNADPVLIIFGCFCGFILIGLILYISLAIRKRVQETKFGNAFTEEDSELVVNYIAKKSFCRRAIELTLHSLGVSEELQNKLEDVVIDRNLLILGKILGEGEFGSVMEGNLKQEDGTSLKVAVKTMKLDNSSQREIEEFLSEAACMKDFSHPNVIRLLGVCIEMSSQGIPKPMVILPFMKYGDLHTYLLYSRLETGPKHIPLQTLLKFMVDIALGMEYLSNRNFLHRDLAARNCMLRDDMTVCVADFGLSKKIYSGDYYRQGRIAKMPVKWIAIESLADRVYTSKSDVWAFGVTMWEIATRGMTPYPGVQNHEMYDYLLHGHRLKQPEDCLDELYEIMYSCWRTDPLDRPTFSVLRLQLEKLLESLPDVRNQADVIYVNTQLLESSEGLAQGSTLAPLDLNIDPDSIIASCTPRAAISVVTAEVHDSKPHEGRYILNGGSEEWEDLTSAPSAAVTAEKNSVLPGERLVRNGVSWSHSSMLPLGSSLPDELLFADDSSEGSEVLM
# T2: human Sky forcedly expressed on HEK293F reporter cells (human, UniProt Q06418 41-890)
# T2 sequence (looked up): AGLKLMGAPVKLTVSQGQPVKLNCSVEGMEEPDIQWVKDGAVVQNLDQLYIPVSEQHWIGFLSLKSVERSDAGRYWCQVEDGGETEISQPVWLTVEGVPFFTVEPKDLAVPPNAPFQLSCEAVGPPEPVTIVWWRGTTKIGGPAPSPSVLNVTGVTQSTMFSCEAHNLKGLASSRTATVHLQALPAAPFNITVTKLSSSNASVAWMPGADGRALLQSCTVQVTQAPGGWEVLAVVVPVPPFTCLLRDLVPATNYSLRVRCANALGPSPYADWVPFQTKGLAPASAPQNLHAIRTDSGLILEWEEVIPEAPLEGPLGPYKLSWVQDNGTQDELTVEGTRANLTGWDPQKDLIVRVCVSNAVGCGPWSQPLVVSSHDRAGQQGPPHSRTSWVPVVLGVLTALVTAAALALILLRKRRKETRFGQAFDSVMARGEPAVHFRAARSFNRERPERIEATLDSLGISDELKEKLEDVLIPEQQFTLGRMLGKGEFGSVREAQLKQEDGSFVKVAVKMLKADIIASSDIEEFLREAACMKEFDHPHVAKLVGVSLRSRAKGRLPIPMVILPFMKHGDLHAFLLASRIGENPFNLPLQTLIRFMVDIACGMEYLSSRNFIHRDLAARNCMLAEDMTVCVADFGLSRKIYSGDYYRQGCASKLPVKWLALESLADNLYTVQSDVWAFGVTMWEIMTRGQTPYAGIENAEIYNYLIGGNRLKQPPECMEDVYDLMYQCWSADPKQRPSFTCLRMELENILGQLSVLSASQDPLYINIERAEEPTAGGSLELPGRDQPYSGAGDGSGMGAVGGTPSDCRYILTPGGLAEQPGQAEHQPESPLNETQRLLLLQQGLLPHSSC
# B1: C-terminally FLAG-tagged human Gas6 recombinant protein (hGas6-F) (ligand, not shown: small tags and cut ends)
# chain: ALLPAREATQFLRPRQRRAFQVFEEAKQGHLERECVEELCSREEAREVFENDPETDYFYPRYLDCINKYGSPYTKNSGFATCVQNLPDQCTPNPCDRKGTQACQDLMGNFFCLCKAGWGGRLCDKDVNECSQENGGCLQICHNKPGSFHCSCHSGFELSSDGRTCQDIDECADSEACGEARCKNLPGSYSCLCDEGFAYSSQEKACRDVDECLQGRCEQVCVNSPGSYTCHCDGRGGLKLSQDMDTCEDILPCVPFSVAKSVKSLYLGRMFSGTPVIRLRFKRLQPTRLVAEFDFRTFDPEGILLFAGGHQDSTWIVLALRAGRLELQLRYNGVGRVTSSGPVINHGMWQTISVEELARNLVIKVNRDAVMKIAVAGDLFQPERGLYHLNLTVGGIPFHEKDLVQPINPRLDGCMRSWNWLNGEDTTIQETVKVNTRMQCFSVTERGSFYPGSGFAFYSLDYMRTPLDVGTESTWEVEVVAHIRPAADTGVLFALWAPDLRAVPLSVALVDYHSTKKLKKQLVVLAVEHTALALMEIKVCDGQEHVVTVSLRDGEATLEVDGTRGQSEVSAAQLQERLAVLERHLRSPVLTFAGGLPDVPVTSAPVTAFYRGCMTLEVNRRLLDLDEAAYKHSDITAHSCPPVEPAAA
# modifications: gamma-carboxylated glutamic acid residues in the Gla domain (producer cells co-express rat VKOR and human GGCX); positions not given
# Experiments:
# [1] = target: B1; test: SPR Biacore T100, captured antibody, Gas6 analyte, first test; reference line A-01 printed again at the head of the LV5 HV-series block (r24), same as r7
# Procedure: (§1) An anti-human IgG antibody was immobilized on a CM5 sensor chip (manufactured by GE Healthcare Japan Corp.) using Human Antibody Capture Kit (manufactured by GE Healthcare Japan Corp.) according to the attached manual. Each test antibody adjusted to 1 μg/mL was added for 10 seconds at a flow rate of 10 μL/min to flow cells. […] The measurement was performed by the […] method. The obtained sensorgram was analyzed using Bia Evaluation Software (manufactured by GE Healthcare Japan Corp.), and the kinetic constant of each antibody was calculated.
# [2] = target: B1; test: competitive ELISA, inhibition of hGas6-F binding to immobilised hAxl-hFc
# [3] = target: B1; test: SPR Biacore T100, captured antibody, Gas6 analyte, retest
# Procedure: as §1
# In this retest, unlike the test mentioned above, the number of antibodies to be measured and variations in the concentration of the analyte were decreased, and the assay was conducted for a short time (within several hours), instead of sufficiently leaving standing the analyte added to the vial. […] This minimizes the adsorption of the analyte to the vial and permits more accurate calculation of ka and KD values than that in the test mentioned above.
# [4] = target: B1; test: ELISA, hGas6-F captured by anti-FLAG, anti-human IgG-HRP
# Procedure: First, 2 μg/mL anti-FLAG antibody [Monoclonal ANTI-FLAG M2 antibody produced in mouse (manufactured by Sigma-Aldrich Co. LLC) diluted with PBS (manufactured by Nacalai Tesque, Inc.)] was dispensed at 50 μL/well to a 96-well plate for ELISA (manufactured by Nalge Nunc International), and the plate was left standing overnight at 4° C. for adsorption. After removal of the immobilization solution, 1% BSA-PBS (manufactured by Nacalai Tesque, Inc.) was added thereto at 300 μL/well, and the plate was left standing at room temperature for 1 hour for blocking and washed five times with Tween 20-PBS (manufactured by Wako Pure Chemical Industries Ltd.).
# In order to reduce the backgrounds of measurement values, the diluted secondary antibody solution was mixed with 50 μg/mL of an anti-DNP mouse IgG1 antibody and incubated at room temperature for 1 hour for use.
# [5] = target: B1; test: SPR Biacore T100, captured antibody, Gas6 analyte, first test
# [6] = target: T1, human Mer forcedly expressed on HEK293F …; test: cell-based or functional assay
# [7] = target: T2, human Sky forcedly expressed on HEK293F …; test: cell-based or functional assay
kon [1] [M⁻¹ s⁻¹],IC50 [2] [µg/mL],Kd [3] [nM],koff [3] [s⁻¹],kon [3] [M⁻¹ s⁻¹],EC50 [4] [µg/mL],Kd [5] [nM],koff [5] [s⁻¹],kon [5] [M⁻¹ s⁻¹],"luminescence intensity (Egr1-luciferase reporter, HEK293F forced to express human Mer) [6] [fold]","luminescence intensity (Egr1-luciferase reporter, HEK293F forced to express human Sky) [7] [fold]",Binder
> 83700,0.0218,0.73,0.000135,186000,0.0113,< 1.87,0.000156,> 83700,,,"KM5320 chimeric antibody (antibody, V domains shown, also called KM5320 chimera; A-01) VH: QIQLVQSGPELKKPGETVKISCKASGYTFTNYGMNWVKQAPGKGLKWMGWINTETGEPTYSDDFKGRFAFSLETSATTAYLQINNLRNEDMATYFCAREDGYYGTLDYWGQGTSVTVSS VL: SIVMTQTPKFLLVSAGDRVTITCKASQSVSNDVAWYQQKPGQSPKVLIYYASNRYTGVPDRFTGSGYGTDFTFTISTVQAEDLAVYFCQQDYSSPWTFGGGTKLEIK"
,,,,,,,,,~3,~3,B1
